Consider five molecules from patent US10941182 (Amgen, dated 2021).

The target in one assay is T1, human APJ receptor (human, UniProt P35414 1-380).
T1 sequence (looked up): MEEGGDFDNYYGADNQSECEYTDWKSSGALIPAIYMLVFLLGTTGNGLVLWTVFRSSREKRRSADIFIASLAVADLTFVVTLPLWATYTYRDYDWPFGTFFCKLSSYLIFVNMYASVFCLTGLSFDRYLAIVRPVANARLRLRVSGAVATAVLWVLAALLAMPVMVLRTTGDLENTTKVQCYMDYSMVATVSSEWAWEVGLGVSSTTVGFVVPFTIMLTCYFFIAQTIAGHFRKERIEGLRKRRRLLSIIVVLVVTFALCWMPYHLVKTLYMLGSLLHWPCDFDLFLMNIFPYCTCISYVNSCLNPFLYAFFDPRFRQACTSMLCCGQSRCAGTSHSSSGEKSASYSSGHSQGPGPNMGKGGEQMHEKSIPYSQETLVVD
Nature of the assay: cell-based or functional assay.

For the next assay, the target named is T2, rat APJ receptor (rat, UniProt Q9JHG3 1-377).
T2 sequence (looked up): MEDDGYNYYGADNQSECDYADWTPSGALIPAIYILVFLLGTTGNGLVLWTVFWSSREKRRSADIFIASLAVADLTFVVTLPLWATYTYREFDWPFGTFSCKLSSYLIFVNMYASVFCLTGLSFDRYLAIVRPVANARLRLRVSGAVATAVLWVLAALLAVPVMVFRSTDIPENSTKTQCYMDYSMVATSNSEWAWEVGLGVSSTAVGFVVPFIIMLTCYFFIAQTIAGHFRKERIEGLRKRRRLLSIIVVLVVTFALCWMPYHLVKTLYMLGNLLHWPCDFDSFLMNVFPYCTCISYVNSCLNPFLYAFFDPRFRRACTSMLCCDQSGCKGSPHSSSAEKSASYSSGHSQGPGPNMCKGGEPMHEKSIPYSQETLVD
Kind of assay: cell-based or functional assay.

Starred links: 1 amine or outer side, 2 acyl side, 3 side chain; linkers in the order of their positions; H or OH if unused. Non-standard residues stand in square brackets, D forms with d. Primed or numbered codes have the meaning given here. *: point of attachment. Oic = O=C(O)[C@@H]1C[C@@H]2CCCC[C@@H]2N1; Phe(4-Cl) = N[C@@H](Cc1ccc(Cl)cc1)C(=O)O; γGlu = O=C(O)[C@H](CCC(=O)[*:2])N[*:1]; NMeR = CN[C@@H](CCCNC(=N)N)C(=O)O; Tridecanoyl = CCCCCCCCCCCCC(=O)*; Cha = N[C@@H](CC1CCCCC1)C(=O)O; β3hP = O=C(O)C[C@@H]1CCCN1; Nle = CCCC[C@H](N)C(=O)O; Pip′ = not defined here; AEEA = NCCOCCOCC(=O)O; Aib = CC(C)(N)C(=O)O

B1: Apelin polypeptide SEQ ID NO: 531 (peptide)
peptide: Tridecanoyl-[γGlu][AEEA][AEEA][dQ]RP[NMeR][Cha]SYKG[Oic][Nle][Aib][Phe(4-Cl)]-OH
SMILES: CCCCCCCCCCCCC(=O)N[C@@H](CCC(=O)NCCOCCOCC(=O)NCCOCCOCC(=O)N[C@H](CCC(N)=O)C(=O)N[C@@H](CCCNC(=N)N)C(=O)N1CCC[C@H]1C(=O)N(C)[C@@H](CCCNC(=N)N)C(=O)N[C@@H](CC1CCCCC1)C(=O)N[C@@H](CO)C(=O)N[C@@H](Cc1ccc(O)cc1)C(=O)N[C@@H](CCCCN)C(=O)NCC(=O)N1[C@H](C(=O)N[C@@H](CCCC)C(=O)NC(C)(C)C(=O)N[C@@H](Cc2ccc(Cl)cc2)C(=O)O)C[C@@H]2CCCC[C@@H]21)C(=O)O
B1: in the assay with human APJ receptor, the “EC50 Human APJ Receptor (GTPγS assay)” value worked out at 852 pM. In addition, in the assay with rat APJ receptor, the “EC50 Rat APJ Receptor (GTPγS assay)” value turned out to be 5660 pM.

B2: Apelin polypeptide SEQ ID NO: 436 (peptide)
peptide: Tridecanoyl-[γGlu][AEEA][AEEA]QRP[NMeR][Cha]SYKG[Oic][Nle]P[Phe(4-Cl)]-OH
SMILES: CCCCCCCCCCCCC(=O)N[C@@H](CCC(=O)NCCOCCOCC(=O)NCCOCCOCC(=O)N[C@@H](CCC(N)=O)C(=O)N[C@@H](CCCNC(=N)N)C(=O)N1CCC[C@H]1C(=O)N(C)[C@@H](CCCNC(=N)N)C(=O)N[C@@H](CC1CCCCC1)C(=O)N[C@@H](CO)C(=O)N[C@@H](Cc1ccc(O)cc1)C(=O)N[C@@H](CCCCN)C(=O)NCC(=O)N1[C@H](C(=O)N[C@@H](CCCC)C(=O)N2CCC[C@H]2C(=O)N[C@@H](Cc2ccc(Cl)cc2)C(=O)O)C[C@@H]2CCCC[C@@H]21)C(=O)O
For B2, the “EC50 Human APJ Receptor (GTPγS assay)” value with human APJ receptor worked out at 793 pM. In addition, the “EC50 Rat APJ Receptor (GTPγS assay)” value with rat APJ receptor turned out to be 1470 pM.

B3: Apelin polypeptide SEQ ID NO: 437 (peptide)
peptide: Tridecanoyl-[γGlu][AEEA][AEEA]QRP[NMeR][Cha]SVKG[Oic][Nle]P[Phe(4-Cl)]-OH
SMILES: CCCCCCCCCCCCC(=O)N[C@@H](CCC(=O)NCCOCCOCC(=O)NCCOCCOCC(=O)N[C@@H](CCC(N)=O)C(=O)N[C@@H](CCCNC(=N)N)C(=O)N1CCC[C@H]1C(=O)N(C)[C@@H](CCCNC(=N)N)C(=O)N[C@@H](CC1CCCCC1)C(=O)N[C@@H](CO)C(=O)N[C@H](C(=O)N[C@@H](CCCCN)C(=O)NCC(=O)N1[C@H](C(=O)N[C@@H](CCCC)C(=O)N2CCC[C@H]2C(=O)N[C@@H](Cc2ccc(Cl)cc2)C(=O)O)C[C@@H]2CCCC[C@@H]21)C(C)C)C(=O)O
On to B3, for which the “EC50 Human APJ Receptor (GTPγS assay)” value in the assay with human APJ receptor amounted to 664 pM. Moreover, the “EC50 Rat APJ Receptor (GTPγS assay)” value with rat APJ receptor stood at 724 pM.

B4: Apelin polypeptide SEQ ID NO: 544 (peptide)
peptide: Tridecanoyl-[γGlu][AEEA][AEEA][dQ]RP[NMeR][Cha]SHKG[Pip′][Nle][β3hP][Phe(4-Cl)]-OH
In the case of B4, the “EC50 Human APJ Receptor (GTPγS assay)” value with human APJ receptor worked out at 2420 pM. Further, the “EC50 Rat APJ Receptor (GTPγS assay)” value in the assay with rat APJ receptor is 5610 pM.

B5: Apelin polypeptide SEQ ID NO: 361 (peptide)
peptide: Tridecanoyl-[γGlu][AEEA][AEEA]QRP[NMeR][Cha]SHKGP[Nle]P[Phe(4-Cl)]-OH
SMILES: CCCCCCCCCCCCC(=O)N[C@@H](CCC(=O)NCCOCCOCC(=O)NCCOCCOCC(=O)N[C@@H](CCC(N)=O)C(=O)N[C@@H](CCCNC(=N)N)C(=O)N1CCC[C@H]1C(=O)N(C)[C@@H](CCCNC(=N)N)C(=O)N[C@@H](CC1CCCCC1)C(=O)N[C@@H](CO)C(=O)N[C@@H](Cc1c[nH]cn1)C(=O)N[C@@H](CCCCN)C(=O)NCC(=O)N1CCC[C@H]1C(=O)N[C@@H](CCCC)C(=O)N1CCC[C@H]1C(=O)N[C@@H](Cc1ccc(Cl)cc1)C(=O)O)C(=O)O
For B5, the “EC50 Human APJ Receptor (GTPγS assay)” value with human APJ receptor was 308 pM. Besides, the “EC50 Rat APJ Receptor (GTPγS assay)” value with rat APJ receptor came out at 86 pM.
